Positions count from the first letter of the chain named.
B1: PA2LR3-P4C6: phage-derived CB1 binding IgG clone (antibody, V domains shown)
VH: EVQLQQSGAELVRPGSSVKISCKASGYAFSYYWMNWVKQRPGQGLEWIGQIYPGDGDTNYNGKFKGKATLTADKSSSTAYMQLSSLTSEDSAVYFCARSHGNYFPYWGQGTLVTVSA
VL: DIVITQSPAIVSASLGERVTMTCTASSSVSSSYLHWYQQKPGSSPKLWIYSTSNLASGVPARFSGSGSGTSYSLTISSMEAEDAATYYCQQWSSYPLTFGAGTKLEIK
modifications: PA2LR3-P4C6 Heavy Chain Variable region; PA2LR3-P4C6 Light Chain Variable region
B2: PA2LR3-P3F8: phage-derived CB1 antibody clone (antibody, V domains shown)
VH: B1 VH with Y31N, K63N
VL: B1 VL with I4L, V11M, I107L
modifications: PA2LR3-P3F8 Heavy Chain Variable Region; PA2LR3-P3F8 Light Chain Variable Region
notes: phage-derived CB1 antibody clone
B3: PA2LR3-P4B1: anti-CB1 antibody; HC variable SEQ ID NO: 42, LC variable SEQ ID NO: 46 (antibody, V domains shown)
VH: B1 VH with Y27F, Y31N, Y60F, K67R, T69I, K74I, S77N
VL: B1 VL with D1Q, I4L, V11M, Q90H, W92Y, S93H, S94R, Y95S, I107L
modifications: PA2LR3-P4B1 Heavy chain variable region; PA2LR3-P4B1 Light chain variable region
B4: PA2LR3-P6B12: anti-CB1 antibody; HC variable SEQ ID NO: 50, LC variable SEQ ID NO: 54 (antibody, V domains shown)
VH: B1 VH with P105A
VL: B1 VL with D1Q, I4L, V11M, Q90H, W92Y, S93H, S94R, Y95S, T98A, I107L
modifications: PA2LR3-P6B12 Heavy chain variable region; PA2LR3-P6B12 Light chain variable region
B5: PA2LR3-P4B5: anti-CB1 antibody; HC variable SEQ ID NO: 26, LC variable SEQ ID NO: 30 (antibody, V domains shown)
VH: B1 VH with N61S, K63R, M81I
VL: B1 VL with I4L, T5N, V11M, Q90H, W92Y, S93H, S94R, Y95S
modifications: PA2LR3- P4B5 Heavy chain variable region; PA2LR3- P4B5 Light chain variable region
B6: PA2LR3-P4G10: phage-derived CB1 binding IgG clone (antibody, V domains shown)
VH: B1 VH with S7F, P105A
VL: B1 VL with I4L, V11M, Y95N, I107L
modifications: PA2LR3-P4G10 Heavy Chain Variable region; PA2LR3-P4G10 Light Chain Variable region
B7: PA2LR3-P6G7: anti-CB1 antibody; HC variable SEQ ID NO: 58, LC variable SEQ ID NO: 62 (antibody, V domains shown)
VH: B1 VH with Y27F, Y31N, Y60F, K67R, T69I, K74I, S77N
VL: B1 VL with I4L, V11M, Q90H, W92H, S93H, S94R, Y95S, L97P, I107L
modifications: PA2LR3-P6G7 Heavy chain variable region; PA2LR3-P6G7 Light chain variable region
B8: 36E12B6C2 Fab: Fab of 36E12B6C2 (antibody, V domains shown)
VH: B1 VH with E1Q, A28E, E46Q, Q82H, S84T, H100G, Y103P, P105A, Y106F
VL: DIQMTQTSSSLSASLGDRVTFSCRASQDISNYLNWYQQKPDGTVKLLIYYTSRLHSGVTSRFRGSGSGTDYSLTISNLEQEDVATYFCQQGHTLPWSFGGGTKLEIK
B9: PA2LR3-P3A8: phage-derived CB1 antibody clone (antibody, V domains shown)
VH: B1 VH with F64V, P105A
VL: B1 VL with I4M, V11M, Y95N, I107L
modifications: PA2LR3-P3A8 Heavy Chain Variable Region; PA2LR3-P3A8 Light Chain Variable Region
notes: as for B2
B10: PA2LR3-P5E7: phage-derived CB1 antibody clone (antibody, V domains shown)
VH: B1 VH with Y31N, Y60F, K67R, T69I, K74I, S77N
VL: DIVLTQSPTTMAASPGEKITITCSASSSISSNYLHWYQQKPGFSPKLLIYRTSTLASGVPARFSGSGSGTSYSLTISSMEAEDAATYYCHQYHRSPHTFGSGTKLEIK
modifications: PA2LR3-P5E7 Heavy Chain Variable region; PA2LR3-P5E7 Light Chain Variable region
notes: as for B2

Columns and labels:
[1] = target: T1, CB1 surface expression (CB1 TRex-CHO / TRex-293 cells) (Homo sapiens, UniProt P21554); assay type: cell-based; settings: for effect on WIN55,212 induced CB1 receptor internalization: antibody 300 nM pre-treatment, 1 μM WIN55,212 1 hour; for CB1 receptor internalization induced by the substance alone: 1 hour
T1 construct: pcDNA4/TO native full length human CB1 receptor construct was transfected into tetracycline inducible system Trex-CHO and Trex-293 cells; expressed in transfected cells; tetracycline induced
Method: 5×10^5 cells/well stably expressing CB1 TRex-CHO cells were seeded in a 6-well plate. Tetracycline (1 μg/ml) was added to culture medium for 24 hours to induce CB1 expression. On the day of the experiment, cells were serum starved for 2 hours. Cells were then pre-incubated with CB1 antibody (300 nM), AM6545 (CB1 neutral antagonist) and negative control (BRIL binder) for half an hour. […] Surface expression of CB1 was stained with anti-CB1 N-terminus mouse monoclonal antibody from R&D and the mean fluorescence intensity (MFI) was determined using flow cytometry.
The impact of CB1 antibody on receptor internalization was also investigated. […] Cells were harvested and stained with anti-CB1 N-terminus mouse monoclonal antibody (R&D).
On the day of the experiment, cells were serum starved for 2 hours. Cells were then pre-incubated with CB1 antibody (300 nM), AM6545 (CB1 neutral antagonist) and negative control (BRIL binder) for half an hour. […] Surface expression of CB1 was stained with anti-CB1 N-terminus mouse monoclonal antibody from R&D and the mean fluorescence intensity (MFI) was determined using flow cytometry (Guava).

[2] = target: T2, human CB1 expressing TRex-CHO cells (Homo sapiens, UniProt P21554); assay type: cell-based; settings: forskolin stimulated TRex-CHO CB1 cells
T2 construct: pcDNA4/TO native full length human CB1 receptor construct was transfected into tetracycline inducible system Trex-CHO and Trex-293 cells; expressed in transfected cells
Method: Data analysis was performed using GraphPad Prism software.
Data analysis was performed using GraphPad Prism.

[3] = tested on: CB1 receptor signaling, WIN55,212 induced ERK phosphorylation in Trex-CHO CB1 receptor cells; assay: ERK activation assay (western blot); assay type: cell-based, human; settings: 100 nM
Method: Two days before the experiment, Trex-CHO CB1 receptor cells were seeded at 500,000 cells/well into 6-well plates. 1 μg/mL tetracycline was used to induce CB1 receptor expression after 24 hours. Cells were serum starved for at least two hours before the experiment. […] Cell lysates were harvested and the level of ERK activation was determined by western blot. Anti-ERK and Anti-phospho-specific ERK antibodies were obtained from Cell Signaling Inc.
Two days before the experiment, Trex-CHO CB1 receptor-expressing cells were seeded at 500,000 cells/well into 6-well plates. 1 μg/mL tetracycline was used to induce CB1 receptor expression after 24 hours. Cells were serum starved for at least two hours before the experiment. […] Cell lysates were harvested and the level of ERK activation was determined by western blot. Anti-ERK and Anti-phospho-specific ERK antibodies were obtained from Cell Signaling Inc.

[4] = target: A138 iCAPS (human CB1, ICL3 replaced with protein 1 sequence); assay: ELISA binding of IgG/Fab to CB1 iCAPS A138; settings: IgG and Fab ELISA, Table 8
Method: (§1) Purified IgG was tested for binding to purified CB1 receptor (CB1 Conformation Antigen Presenting System (iCAPS)) by ELISA. Non-biotinylated antigens (e.g. empty iCAPS) were coated directly on Maxisorp plates. The primary antibodies were purified IgGs with 1:3 serial dilutions, incubated on the plate for 1 hour. After 3 rounds of washing with PBST, secondary antibodies HRP goat anti-mouse IgG (Abmart) or HRP goat anti-human IgG (Sigma), depending on the species of the IgGs were added and incubated for another hour. The plates were washed three times with PBST, then developed with TMB (Biopanda). HCl was added to the plates to stop the reaction. Absorbance at 450 nm was read on Emax precision microplate reader (Molecular Devices).
(§2) IgG and Fab molecules tested were 36E12B6C2 IgG, 36E12B6C2 Fab, PA13R3-P1C4 IgG, and PA13R3-P1C4 Fab, compared to negative control BRIL binder P1F7 IgG and P1F7 Fab. For IgG antibodies, the secondary antibody used to detect binding was anti-mouse IgG-HRP; for Fabs, the secondary antibody used to detect binding was anti-human IgG-HRP.

[5] = target: A139 iCAPS (human CB1, ICL3 replaced with BRIL); assay: ELISA binding of IgG/Fab to CB1 iCAPS A139; settings: IgG and Fab ELISA, Table 8
Method: as §1, §2

T1 sequence (P21554 whole entry): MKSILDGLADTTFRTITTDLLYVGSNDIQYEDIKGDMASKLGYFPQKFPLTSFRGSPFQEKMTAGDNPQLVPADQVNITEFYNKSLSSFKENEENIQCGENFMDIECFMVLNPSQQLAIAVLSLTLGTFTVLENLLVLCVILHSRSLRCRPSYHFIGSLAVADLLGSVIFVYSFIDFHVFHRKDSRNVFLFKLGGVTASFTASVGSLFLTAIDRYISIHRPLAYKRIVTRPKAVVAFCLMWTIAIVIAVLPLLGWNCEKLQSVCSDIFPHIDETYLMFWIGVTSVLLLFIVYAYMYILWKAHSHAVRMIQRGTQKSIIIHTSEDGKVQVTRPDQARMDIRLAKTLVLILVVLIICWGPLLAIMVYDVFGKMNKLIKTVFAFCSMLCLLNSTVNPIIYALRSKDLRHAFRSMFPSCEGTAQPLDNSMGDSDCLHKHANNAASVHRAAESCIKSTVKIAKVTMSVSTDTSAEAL
T2 sequence (P21554 whole entry): as above

Row | Molecule | effect on WIN55,212 induced CB1 receptor internalization [1] | CB1 receptor internalization induced by the substance alone [1] | other results
1 | Cc1c(C(=O)NN2CCS(=O)(=O)CC2)nn(-c2ccc(Cl)cc2Cl)c1-c1ccc(C#CCCC#N)cc1 [AM6545, reference compound] | blocked | – | effect on cAMP levels without exogenous agonist / mechanism [2]: did not affect cAMP levels
2 | Cc1c(C(=O)c2cccc3ccccc23)c2cccc3c2n1[C@H](CN1CCOCC1)CO3 [WIN55,212, reference compound] | – | – | ERK activation by agonist [3]: induced ERK activation
3 | B1 | do not block | do not induce | –
4 | B2 | do not block | do not induce | –
5 | B3 | do not block | do not induce | –
6 | B4 | do not block | do not induce | –
7 | B5 | do not block | do not induce | –
8 | B6 | do not block | do not induce | –
9 | B7 | do not block | do not induce | –
10 | B8 | – | – | EC50 [4]: 1.02 nM; EC50 [5]: 0.805 nM
11 | B9 | do not block | do not induce | –
12 | B10 | do not block | do not induce | –

— patent US11421026B2, “Antibodies that bind human cannabinoid 1 (CB1) receptor” (BIRD ROCK BIO, Inc., priority 2015, dated 2022)
